Patent US20240026004A1
pEC50: −log10 of the molar value.

Legend:
[1] = biological target: human TGF-β3 (human) (UniProt P10600); assay: ELISA, TGF-β3 coated at 0.5 µg/ml, HRP anti-human IgG detection, OD450
[2] = biological target: human PD-L1 on CHO-K1 cells (human) (UniProt Q9NZQ7); assay: flow cytometry on CHO-K1 cells overexpressing human PD-L1, PE anti-human IgG detection, median fluorescence intensity
[3] = biological target: human PD-L1 on CHO-K1 cells (human) (UniProt Q9NZQ7); assay: dual-target flow cytometry: sample pre-mixed with 3 µg/ml human TGF-β1, then CHO-K1 cells overexpressing human PD-L1, detection with PE anti-human TGF-β1 antibody (signal needs PD-L1 and TGF-β1 bound at once)
[4] = biological target: human TGF-β1 (human) (UniProt P01137); assay: ELISA, TGF-β1 coated at 0.5 µg/ml, HRP anti-human IgG detection, OD450
Chain of human TGF-β1 (human) (P01137 279-390 limits assumed): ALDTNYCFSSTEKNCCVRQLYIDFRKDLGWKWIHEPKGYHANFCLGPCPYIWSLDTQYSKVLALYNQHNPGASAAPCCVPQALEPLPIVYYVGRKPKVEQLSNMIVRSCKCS

Chain of human PD-L1 on CHO-K1 cells (human) (Q9NZQ7 19-290): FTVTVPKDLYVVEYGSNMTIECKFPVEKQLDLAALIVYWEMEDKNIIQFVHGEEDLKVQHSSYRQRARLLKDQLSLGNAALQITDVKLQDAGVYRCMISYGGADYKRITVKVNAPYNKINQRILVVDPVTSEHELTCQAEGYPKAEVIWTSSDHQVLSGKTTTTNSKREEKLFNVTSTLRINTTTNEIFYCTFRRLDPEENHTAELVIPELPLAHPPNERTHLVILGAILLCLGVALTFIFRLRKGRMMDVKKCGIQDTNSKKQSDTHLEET
Chain of human TGF-β3 (human) (P10600 301-412 limits assumed): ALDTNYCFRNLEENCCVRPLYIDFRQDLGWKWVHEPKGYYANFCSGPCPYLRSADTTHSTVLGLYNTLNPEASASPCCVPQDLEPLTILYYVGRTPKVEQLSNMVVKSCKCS

Work on “900544 (control drug M7824 from Merck, expressed in-house) (bispecific antibody)” yielded a pEC50 [1] of 8.95, a pEC50 [2] of 8.84 and a pEC50 [3] of 9.10. It also gave a pEC50 [4] of 9.22.
